The record followed here is IntAct's records for PubMed 24275654.

Targets include tbb6_human TUBB6 (UniProt Q9BUF5); tbb5_human TUBB (UniProt P07437); tbb4a_human TUBB4A (UniProt P04350).
Sequence of UniProt P07437 (P07437 whole entry): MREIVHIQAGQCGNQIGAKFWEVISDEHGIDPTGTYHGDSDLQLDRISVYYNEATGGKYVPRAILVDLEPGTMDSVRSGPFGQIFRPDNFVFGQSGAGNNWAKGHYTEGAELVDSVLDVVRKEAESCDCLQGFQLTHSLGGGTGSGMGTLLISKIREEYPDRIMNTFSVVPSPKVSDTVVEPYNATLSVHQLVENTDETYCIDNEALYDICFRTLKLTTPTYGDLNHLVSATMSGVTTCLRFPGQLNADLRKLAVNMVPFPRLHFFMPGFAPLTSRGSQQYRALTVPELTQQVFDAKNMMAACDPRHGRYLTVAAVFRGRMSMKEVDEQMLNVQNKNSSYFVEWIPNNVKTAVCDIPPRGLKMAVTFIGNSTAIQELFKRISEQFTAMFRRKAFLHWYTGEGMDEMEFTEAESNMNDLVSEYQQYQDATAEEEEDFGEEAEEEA
Sequence of UniProt P04350 (P04350 whole entry): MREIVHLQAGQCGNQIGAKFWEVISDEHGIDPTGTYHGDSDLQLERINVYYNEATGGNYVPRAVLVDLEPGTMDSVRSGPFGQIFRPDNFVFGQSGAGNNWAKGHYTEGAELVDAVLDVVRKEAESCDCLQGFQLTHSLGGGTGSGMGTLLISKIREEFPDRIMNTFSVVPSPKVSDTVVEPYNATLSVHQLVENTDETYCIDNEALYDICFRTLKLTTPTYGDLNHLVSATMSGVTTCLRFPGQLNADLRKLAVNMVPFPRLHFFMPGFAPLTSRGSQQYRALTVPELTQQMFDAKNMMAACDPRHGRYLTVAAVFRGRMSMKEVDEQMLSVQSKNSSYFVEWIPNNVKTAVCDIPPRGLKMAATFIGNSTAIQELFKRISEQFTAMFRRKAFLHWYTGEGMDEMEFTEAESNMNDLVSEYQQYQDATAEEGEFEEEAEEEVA
Sequence of UniProt Q9BUF5 (Q9BUF5 whole entry): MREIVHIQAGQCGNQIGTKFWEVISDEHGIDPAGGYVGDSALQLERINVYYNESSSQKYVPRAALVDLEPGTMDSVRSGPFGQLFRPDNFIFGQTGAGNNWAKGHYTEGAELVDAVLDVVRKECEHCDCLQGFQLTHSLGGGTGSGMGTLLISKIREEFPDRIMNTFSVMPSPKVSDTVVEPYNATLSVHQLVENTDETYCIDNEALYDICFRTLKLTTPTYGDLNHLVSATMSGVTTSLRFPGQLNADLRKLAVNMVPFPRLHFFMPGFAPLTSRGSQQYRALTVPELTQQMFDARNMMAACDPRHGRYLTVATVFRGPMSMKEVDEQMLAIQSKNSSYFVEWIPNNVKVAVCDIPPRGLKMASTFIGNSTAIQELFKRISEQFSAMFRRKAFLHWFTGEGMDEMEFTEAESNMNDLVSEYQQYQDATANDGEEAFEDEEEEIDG

Consider “Leucine-rich repeat serine/threonine-protein kinase 2 (Homo sapiens), Q5S007 K1347A”, for which the “effect of a mutation on the interaction” value with tbb6_human TUBB6, with tbb5_human TUBB and with tbb4a_human TUBB4A was “disrupting interaction” each time.

As to “Leucine-rich repeat serine/threonine-protein kinase 2 (Homo sapiens), Q5S007 R1441C”, the “effect of a mutation on the interaction” value with tbb5_human TUBB and with tbb4a_human TUBB4A was “increasing interaction” in each case.

Regarding “Leucine-rich repeat serine/threonine-protein kinase 2 (Homo sapiens), Q5S007 R1441G”, the “effect of a mutation on the interaction” value in the test with tbb5_human TUBB and with tbb4a_human TUBB4A was “decreasing interaction” throughout.

Take “Leucine-rich repeat serine/threonine-protein kinase 2 (Homo sapiens), Q5S007 R1441H”: the “effect of a mutation on the interaction” value in the test with tbb5_human TUBB and with tbb4a_human TUBB4A was “decreasing interaction” in each case.

Turning to “Leucine-rich repeat serine/threonine-protein kinase 2 (Homo sapiens), Q5S007 T1343A”, the “effect of a mutation on the interaction” value with tbb4a_human TUBB4A is listed as “increasing interaction”.

For the substance “Leucine-rich repeat serine/threonine-protein kinase 2 (Homo sapiens), Q5S007 T1343D”, the “effect of a mutation on the interaction” value with tbb5_human TUBB and in the test with tbb4a_human TUBB4A was “decreasing interaction” in each case.

Consider “Leucine-rich repeat serine/threonine-protein kinase 2 (Homo sapiens), Q5S007 T1491A”, for which the “effect of a mutation on the interaction” value with tbb4a_human TUBB4A is recorded as “increasing interaction”.

Regarding “Leucine-rich repeat serine/threonine-protein kinase 2 (Homo sapiens), Q5S007 T1491D”, in the test with tbb4a_human TUBB4A, the “effect of a mutation on the interaction” value is “decreasing interaction”.
